Results: US20200345804A1
Where no end group is shown, it is not given here. [ ]: non-standard residue; d: D form. NMeA = CN[C@@H](C)C(=O)O

How the values were obtained:
[1] = target: BIR3 domain of XIAP (human, residues 253-347, N-terminal His tag) (human); assay: ITC, full curve titration
[2] = target: BIR3 domain of XIAP (human, residues 253-347, N-terminal His tag) (human); assay: ITC
[3] = target: BIR3 domain of XIAP (human, residues 253-347, N-terminal His tag) (human); assay: DELFIA displacement of AVPI-Biotin
[4] = target: recombinant BIR3 domain of cIAP2 with N-terminal 6xHis tag (Artificial Sequence); assay: DELFIA displacement of AVPI-Biotin
[5] = target: recombinant BIR3 domain of cIAP1 with N-terminal 6xHis tag (Artificial Sequence); assay: DELFIA displacement of AVPI-Biotin
[6] = target: BIR3 domain of XIAP (human, residues 253-347, N-terminal His tag) (human); assay: DELFIA displacement, 2-h incubation
[7] = target: recombinant BIR3 domain of cIAP2 with N-terminal 6xHis tag (Artificial Sequence); assay: DELFIA displacement, 2-h incubation
[8] = target: recombinant BIR3 domain of cIAP1 with N-terminal 6xHis tag (Artificial Sequence); assay: DELFIA displacement, 2-h incubation
[9] = target: BIR3 domain of XIAP (human, residues 253-347, N-terminal His tag) (human); assay: ITC, difference to N-Me-AVPF-NH2
[10] = target: BIR2 domain of XIAP (Artificial Sequence); assay: DELFIA displacement assay on XIAP BIR2
[11] = target: BIR3 domain of XIAP (human, residues 253-347, N-terminal His tag) (human); assay: DELFIA displacement of AVPI-Biotin; remark: listed apart in the source
Target sequence in this assay (chain, as listed by the source): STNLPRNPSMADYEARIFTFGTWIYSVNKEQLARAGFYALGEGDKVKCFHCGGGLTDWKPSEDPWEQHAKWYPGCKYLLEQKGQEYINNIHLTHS

[12] = target: recombinant BIR3 domain of cIAP2 with N-terminal 6xHis tag (Artificial Sequence); assay: DELFIA displacement of AVPI-Biotin; remark: listed apart in the source
Target sequence in this assay (chain, as listed by the source limits assumed): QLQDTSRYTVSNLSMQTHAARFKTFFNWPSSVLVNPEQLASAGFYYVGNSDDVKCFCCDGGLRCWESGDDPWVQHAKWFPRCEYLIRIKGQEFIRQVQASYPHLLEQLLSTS

[13] = target: recombinant BIR3 domain of cIAP1 with N-terminal 6xHis tag (Artificial Sequence); assay: DELFIA displacement of AVPI-Biotin; remark: listed apart in the source
Target sequence in this assay (chain, as listed by the source limits assumed): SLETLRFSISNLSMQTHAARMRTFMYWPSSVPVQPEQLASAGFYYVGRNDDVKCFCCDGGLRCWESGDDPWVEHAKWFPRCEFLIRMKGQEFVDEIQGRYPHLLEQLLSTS

Molecule | -TΔS [2] [kcal/mol] | Kd [2] [nM] | δ(-TΔS) [9] [kcal/mol] | δ(ΔH) [9] [kcal/mol] | ΔH [2] [kcal/mol] | other results
AVPI (peptide) | -4 | 825 |  |  |  | ΔH [1]: -4.3 kcal/mol; ΔG [2]: -8.3 kcal/mol; IC50 [3]: 957 nM; IC50 [4]: 320 nM
Ala-pTyr-Pro-(4F)Phe-NH2 (peptide) | 3.04 | 205 |  |  |  | ΔH [1]: -12.2 kcal/mol; ΔG [2]: -9.13 kcal/mol; IC50 [3]: 40.1 nM; IC50 [4]: 143 nM; IC50 [5]: 124 nM
MeHN-A-Dap(3-FSB)-P-F-NH2 (peptide) |  |  |  |  |  | IC50 [3]: 47.3 nM
MeHN-A-Dap(4-FSBz)-P-F-CONH2 (peptide) |  |  |  |  |  | IC50 [6]: 17.1 nM; IC50 [7]: 85.7 nM; IC50 [8]: 18.6 nM
MeHN-A-Dap(p-OSO2F-Benzamide)-P-F-CONH2 (peptide) |  |  |  |  |  | IC50 [7]: > 1000 nM; IC50 [8]: 335 nM
MeHN-A-F(OSO2F)-P-F-CONH2 (peptide) |  |  |  |  |  | IC50 [7]: 343 nM
MeNH-A-Dap(4-VSB)P-F-CONH2 (peptide) |  |  |  |  |  | IC50 [6]: 31 nM; IC50 [7]: 1.3 nM; IC50 [8]: 4.3 nM
MeNH-A-hF(OSO2F)-P-F-CONH2 (peptide) |  |  |  |  |  | IC50 [6]: 197 nM; IC50 [7]: 188 nM; IC50 [8]: 26 nM
N-Me-Ala-(p-phosphonomethyl)Phe-Pro-Phe-NH2 (peptide) |  |  | 4 | -4.4 |  | IC50 [3]: 35 nM
NMe-Ala-pSFB-Dap-Pro-Phe-NH2 (peptide) |  |  |  |  |  | IC50 [10]: 2220 nM
compound 2 (N-Me-Ala-P2-Pro-Phe-NH2, P2 = (4SO3^-)-Phe) (peptide) |  |  | 0 | -0.5 |  | IC50 [5]: 144 nM
compound 3 (N-Me-Ala-P2-Pro-Phe-NH2, P2 = (4-NO2)-Phe) (peptide) | -0.1 | 280 | 0.9 | -1.1 | -8.9 | 
compound 5 (N-Me-Ala-P2-Pro-Phe-NH2, P2 = (3Cl-4CF3)Phe) (peptide) | -0.9 | 190 | 0.1 | -0.5 | -8.3 | 
compound 6 (N-Me-Ala-P2-Pro-Phe-NH2, P2 = (3F-4CF3)Phe) (peptide) | -1.2 | 155 | -0.2 | -0.3 | -8.1 | 
compound 7 (N-Me-Ala-P2-Pro-Phe-NH2, P2 = (3Cl-5CF3)Phe) (peptide) | -1.3 | 133 | -0.3 | -0.2 | -8 | 
compound 8 (N-Me-Ala-P2-Pro-Phe-NH2, P2 = Cyclohexyl Glycine) (peptide) | -1.4 | 354 | -0.4 | 0 | -7.8 | 
compound 9 (N-Me-Ala-P2-Pro-Phe-NH2, P2 = Dab) (peptide) | -1.4 | 230 | -0.4 | 0.1 | -7.7 | 
compound 10 (N-Me-Ala-P2-Pro-Phe-NH2, P2 = (2F-4CF3)Phe) (peptide) | -1.8 | 194 | -0.8 | 0.4 | -7.4 | 
compound 11 (N-Me-Ala-P2-Pro-Phe-NH2, P2 = Phe(4-CF3)) (peptide) | -1.9 | 213 | -0.9 | 0.6 | -7.2 | 
compound 12 (N-Me-Ala-P2-Pro-Phe-NH2, P2 = (4-OCF3)Phe) (peptide) | -1.9 | 227 | -0.9 | 0.7 | -7.1 | 
compound 13 (N-Me-Ala-P2-Pro-Phe-NH2, P2 = (p-guanidino)Phe) (peptide) | -2.3 | 182 | -1.3 | 0.9 | -6.9 | 
compound 14 (N-Me-Ala-P2-Pro-Phe-NH2, P2 = (2F-4CF3-5Me)Phe) (peptide) | -3.3 | 81 | -2.3 | 1.4 | -6.4 | 
[NMeA]VPF-NH2 [N-Me-AVPF-NH2] | -1 |  |  |  | -7.8 | 
AVPF |  | 175 |  |  |  | ΔH [1]: -7.64 kcal/mol; IC50 [11]: 60 nM; IC50 [12]: 168 nM; IC50 [13]: 50.9 nM
